According to publication PMC9307851:

Molecular target: DNMT3B MTase domain WT (human, UniProt Q9UBC3 569-853)
Experiment: ITC; 5 C; ITC: 20 mM Tris-HCl pH 7.2, 200 mM NaCl, 5% glycerol, 2 mM b-mercaptoethanol, 5 C; EMSA: 50 mM Tris-HCl pH 8.0, 25% glycerol, 8% glucose, 2 mM DTT, 0.1 mg/mL BSA, 30 min, gel in 0.5x TBE at 4 C
Conditions: protein: recombinant; tags: His6-MBP removed by TEV; (only upper strand given)

B1: 24-mer DNA duplex (GAC)8 (dsDNA)
DNA 1: GACGACGACGACGACGACGACGAC
DNA 2: GTCGTCGTCGTCGTCGTCGTCGTC
B1 was tested, and the Kd was 4 ± 0.1 µM.
